From paper PMC2812052 come the findings set out here.

Values joined by “and” are separate entries in the source; they are usually repeats but may differ in a detail not shown here. Identical values can stand only once.

Experiment [1] deals with recombinant human hAα425-503 fragment, truncated variant of the human fibrinogen αC-domain (human). The experiment can be described thus: AUC.
The target is the same in experiment [2]. Description: SEC. In general terms: Size exclusion chromatography separates by hydrodynamic size, large species first.
For experiment [3], the target named is recombinant bAα374-568 fragment corresponding to the full-length bovine fibrinogen αC-domain (bovine). Description: AUC.
The target is the same in experiment [4]. Description: SEC.
The target in experiment [5] is recombinant hAα392-610 fragment corresponding to the full-length human fibrinogen αC-domain (human). Description: AUC.
For experiment [6] the target is unchanged. The experiment can be described thus: SEC.

Usually Kd stands for the concentration at which binding is half-saturated. One may read the stoichiometry N as a count of units in the complex or per binding partner. As to “recombinant human hAα425-503 fragment, truncated variant of the human fibrinogen αC-domain (domain or fragment)”, the Kd in experiment [1] amounted to 1140 µM. In addition, in experiment [2], the oligomers (%) at 1.6 mg/mL, 2.0 M NaCl was 43.6%; the oligomers (%) at 3.2 mg/mL, 0.15 M NaCl worked out at 1.7%; the oligomers (%) at 3.2 mg/mL, 1.0 M NaCl turned out to be 26.2%; the oligomers (%) at 6.3 mg/mL, 0.15 M NaCl turned out to be 6.6%. Besides, the stoichiometry N in experiment [2] was 5 and 6.

In the case of “recombinant bAα374-568 fragment corresponding to the full-length bovine fibrinogen αC-domain (domain or fragment)”, in experiment [3], the Ka came out at 26100 M⁻¹ and the Kd worked out at 38.3 µM. In addition, in experiment [4], the oligomers (%) at 1.8 mg/mL, 0.15 M NaCl came to 9.5%; the oligomers (%) at 3.7 mg/mL, 0.15 M NaCl was found to be 27.2%; the oligomers (%) at 3.8 mg/mL, 2.0 M NaCl stood at 54.4%.

As to “recombinant hAα392-610 fragment corresponding to the full-length human fibrinogen αC-domain (domain or fragment)”, in experiment [5], the Ka turned out to be 83200 M⁻¹, the Kd worked out at 12 µM and the stoichiometry N turned out to be 11.3. Further, in experiment [6], the oligomers (%) at 1.9 mg/mL, 0.15 M NaCl came to 15.4%; the oligomers (%) at 3.8 mg/mL, 0.15 M NaCl is 32%; the oligomers (%) at 4.0 mg/mL, 2.0 M NaCl amounted to 58.5%.
